Data reported in paper PMC8843743, “Targeting a proteolytic neoepitope on CUB domain containing protein 1 (CDCP1) for RAS-driven cancers” (The Journal of Clinical Investigation, 2022).

Target: T1, NTF of recombinant c-CDCP1 cut 3 (human, UniProt Q9H5V8 30-369)
T1 construct: CUB domain containing protein 1 (CDCP1), human; NTF with the native cut site 3 (proteolysis after K369); NTF (aa 30-369); The NTF alone was also made as NTF-Fc; also called NTF (cut 3); NTF (aa 30-369); source: BirA-Expi293, cotransfected with the CTF plasmid, purified (protein A or Ni-NTA)
T1 sequence (looked up): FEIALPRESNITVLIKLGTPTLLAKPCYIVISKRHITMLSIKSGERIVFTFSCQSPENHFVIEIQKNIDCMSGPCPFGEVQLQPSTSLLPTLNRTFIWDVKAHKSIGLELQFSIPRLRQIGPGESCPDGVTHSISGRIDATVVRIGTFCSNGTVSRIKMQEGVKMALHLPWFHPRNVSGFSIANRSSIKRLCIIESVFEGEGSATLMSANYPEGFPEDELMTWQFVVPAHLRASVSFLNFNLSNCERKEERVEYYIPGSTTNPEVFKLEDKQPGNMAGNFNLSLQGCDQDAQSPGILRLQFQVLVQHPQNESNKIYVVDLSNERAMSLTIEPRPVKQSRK
Assay: co-purification after co-expression; NTF and CTF ectodomain on separate plasmids cotransfected in BirA-Expi293; protein A or Ni-NTA affinity chromatography; SDS-PAGE
Settings: partners not purified

B1: CTF ectodomain of recombinant c-CDCP1 cut 3 (domain or fragment, human, UniProt Q9H5V8 370-665, looked up)
chain: FVPGCFVCLESRTCSSNLTLTSGSKHKISFLCDDLTRLWMNVEKTISCTDHRYCQRKSYSLQVPSDILHLPVELHDFSWKLLVPKDRLSLVLVPAQKLQQHTHEKPCNTSFSYLVASAIPSQDLYFGSFCPGGSIKQIQVKQNISVTLRTFAPSFQQEASRQGLTVSFIPYFKEEGVFTVTPDTKSKVYLRTPNWDRGLPSLTSVSWNISVPRDQVACLTFFKERSGVVCQTGRAFMIIQEQRTRAEEIFSLDEDVLPKPSFHHHSFWVNISNCSPTSGKQLDLLFSVTLTPRTVD
notes: CUB domain containing protein 1 (CDCP1), human; CTF ectodomain with the native cut site 3 (proteolysis after K369); CTF (aa 370-665); also called CTF (cut 3); CTF (aa 370-665); source: BirA-Expi293, cotransfected with the NTF plasmid, purified (protein A or Ni-NTA)
- binding result: binds
